Data: patent US20170369595A1 (Hoffmann-La Roche, published 2017)

B1: BsAb CD33-Dig(SS)-CD33 (bispecific antibody)
light: DIQLTQSPSTLSASVGDRVTITCRASESLDNYGIRFLTWFQQKPGKAPKLLMYAASNQGSGVPSRFSGSGSGTEFTLTISSLQPDDFATYYCQQTKEVPWSFGQGTKVEVKRTVAAPSVFIFPPSDEQLKSGTASVVCLLNNFYPREAKVQWKVDNALQSGNSQESVTEQDSKDSTYSLSSTLTLSKADYEKHKVYACEVTHQGLSSPVTKSFNRGEC
heavy 1: EVQLVQSGAEVKKPGSSVKVSCKASGYTITDSNIHWVRQAPGQSLEWIGYIYPYNGGTDYNQKFKNRATLTVDNPTNTAYMELSSLRSEDTAFYYCVNGNPWLAYWGQGTLVTVSSASTKGPSVFPLAPSSKSTSGGTAALGCLVKDYFPEPVTVSWNSGALTSGVHTFPAVLQSSGLYSLSSVVTVPSSSLGTQTYICNVNHKPSNTKVDKKVEPKSCGGGGSGGGGSGGGGSGGGGSQVQLVESGGGLVKPGGSLRLSCAASGFTFSDYAMSWIRQAPGKCLEWVSSINIGATYIYYADSVKGRFTISRDNAKNSLYLQMNSLRAEDTAVYYCARPGSPYEYDKAYYSMAYWGQGTTVTVSSGQPREPQVYTLPPCRDELTKNQVSLWCLVKGFYPSDIAVEWESNGQPENNYKTTPPVLDSDGSFFLYSKLTVDKSRWQQGNVFSCSVMHEALHNHYTQKSLSLSPGK
heavy 2: EVQLVQSGAEVKKPGSSVKVSCKASGYTITDSNIHWVRQAPGQSLEWIGYIYPYNGGTDYNQKFKNRATLTVDNPTNTAYMELSSLRSEDTAFYYCVNGNPWLAYWGQGTLVTVSSASTKGPSVFPLAPSSKSTSGGTAALGCLVKDYFPEPVTVSWNSGALTSGVHTFPAVLQSSGLYSLSSVVTVPSSSLGTQTYICNVNHKPSNTKVDKKVEPKSCGGGGSGGGGSGGGGSGGGGSDIQMTQSPSSLSASVGDRVTITCRASQDIKNYLNWYQQKPGKAPKLLIYYSSTLLSGVPSRFSGSGSGTDFTLTISSLQPEDFATYYCQQSITLPPTFGCGTKVEIKGQPREPQVCTLPPSRDELTKNQVSLSCAVKGFYPSDIAVEWESNGQPENNYKTTPPVLDSDGSFFLVSKLTVDKSRWQQGNVFSCSVMHEALHNHYTQKSLSLSPGK
notes: Trivalent, bispecific; no CH2; (Gly4Ser)4 connectors; In the FACS assay it carried Dig-Cy5 as payload
B2: BsAb Dig-CD33-Dig (bispecific antibody)
light: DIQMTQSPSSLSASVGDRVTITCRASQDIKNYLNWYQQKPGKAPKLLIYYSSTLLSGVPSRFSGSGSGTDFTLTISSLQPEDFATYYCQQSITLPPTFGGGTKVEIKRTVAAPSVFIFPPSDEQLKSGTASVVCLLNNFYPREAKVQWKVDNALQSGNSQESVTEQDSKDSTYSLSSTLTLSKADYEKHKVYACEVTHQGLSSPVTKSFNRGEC
heavy 1: QVQLVESGGGLVKPGGSLRLSCAASGFTFSDYAMSWIRQAPGKGLEWVSSINIGATYIYYADSVKGRFTISRDNAKNSLYLQMNSLRAEDTAVYYCARPGSPYEYDKAYYSMAYWGQGTTVTVSSASTKGPSVFPLAPSSKSTSGGTAALGCLVKDYFPEPVTVSWNSGALTSGVHTFPAVLQSSGLYSLSSVVTVPSSSLGTQTYICNVNHKPSNTKVDKKVEPKSCGGGGSGGGGSGGGGSGGGGSEVQLVQSGAEVKKPGSSVKVSCKASGYTITDSNIHWVRQAPGQSLEWIGYIYPYNGGTDYNQKFKNRATLTVDNPTNTAYMELSSLRSEDTAFYYCVNGNPWLAYWGQGTLVTVSSGQPREPQVYTLPPCRDELTKNQVSLWCLVKGFYPSDIAVEWESNGQPENNYKTTPPVLDSDGSFFLYSKLTVDKSRWQQGNVFSCSVMHEALHNHYTQKSLSLSPGK
heavy 2: QVQLVESGGGLVKPGGSLRLSCAASGFTFSDYAMSWIRQAPGKGLEWVSSINIGATYIYYADSVKGRFTISRDNAKNSLYLQMNSLRAEDTAVYYCARPGSPYEYDKAYYSMAYWGQGTTVTVSSASTKGPSVFPLAPSSKSTSGGTAALGCLVKDYFPEPVTVSWNSGALTSGVHTFPAVLQSSGLYSLSSVVTVPSSSLGTQTYICNVNHKPSNTKVDKKVEPKSCGGGGSGGGGSGGGGSGGGGSDIQLTQSPSTLSASVGDRVTITCRASESLDNYGIRFLTWFQQKPGKAPKLLMYAASNQGSGVPSRFSGSGSGTEFTLTISSLQPDDFATYYCQQTKEVPWSFGQGTKVEVKGQPREPQVCTLPPSRDELTKNQVSLSCAVKGFYPSDIAVEWESNGQPENNYKTTPPVLDSDGSFFLVSKLTVDKSRWQQGNVFSCSVMHEALHNHYTQKSLSLSPGK
notes: as for B1

Target: T1, CD33 (UniProt P20138 18-364, limits assumed)
T1 construct: whole, on cells; Endogenous antigen on Molm13 cells; also called cell surface antigen CD33; CD33-expressing Molm13 cells
Experiment: FACS on CD33-expressing Molm13 cells, Dig-Cy5 as payload
Procedure: Simultaneous antigen binding of the antibodies generated in example 1 was analyzed by FACS analysis on LeY-expressing MCF7 cells, CD33-expressing Molm13 cells and GPC3-expressing HepG2 cells using Dig-Cy5 as payload to address hapten binding.

T1 sequence (P20138 18-364 limits assumed): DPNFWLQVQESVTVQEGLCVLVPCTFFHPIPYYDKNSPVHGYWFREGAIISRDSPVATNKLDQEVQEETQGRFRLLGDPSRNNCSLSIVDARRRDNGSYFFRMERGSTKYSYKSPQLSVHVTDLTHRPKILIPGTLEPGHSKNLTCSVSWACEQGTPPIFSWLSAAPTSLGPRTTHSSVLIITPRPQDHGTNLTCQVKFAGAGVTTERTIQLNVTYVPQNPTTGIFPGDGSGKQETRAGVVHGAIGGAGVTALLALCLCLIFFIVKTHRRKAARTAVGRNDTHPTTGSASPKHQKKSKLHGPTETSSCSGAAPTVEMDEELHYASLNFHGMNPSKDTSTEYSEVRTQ

Row | Binder | binding result
1 | B1 | binds
2 | B2 | binds
